Earlier results, collected in paper PMC8174103.

Target: EGFR (Homo sapiens) (UniProt P00533)

For EGF (from UniProt P01133), the Kd is listed as 2 nM.
